The target of one data set is T1, Sub2p Y12S (Saccharomyces cerevisiae, UniProt Q07478 1-446, Y12S).
T1 sequence: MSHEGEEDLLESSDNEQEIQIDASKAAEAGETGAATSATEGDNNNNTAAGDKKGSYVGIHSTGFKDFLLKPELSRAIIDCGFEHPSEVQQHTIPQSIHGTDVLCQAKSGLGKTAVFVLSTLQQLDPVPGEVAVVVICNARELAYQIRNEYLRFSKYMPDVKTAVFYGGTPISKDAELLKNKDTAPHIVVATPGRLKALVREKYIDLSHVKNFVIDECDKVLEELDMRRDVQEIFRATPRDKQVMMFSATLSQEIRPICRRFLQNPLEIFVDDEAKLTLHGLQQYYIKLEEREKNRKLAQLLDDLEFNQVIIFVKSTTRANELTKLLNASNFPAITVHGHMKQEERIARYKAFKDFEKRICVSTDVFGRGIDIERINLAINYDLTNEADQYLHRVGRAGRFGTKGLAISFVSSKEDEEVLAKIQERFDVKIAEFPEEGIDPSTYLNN
In words: EMSA. Background: In EMSA bound probe runs differently from free probe, usually more slowly.

Another data set addresses T2, Sub2p wt (Saccharomyces cerevisiae, UniProt Q07478 1-446).
T2 sequence: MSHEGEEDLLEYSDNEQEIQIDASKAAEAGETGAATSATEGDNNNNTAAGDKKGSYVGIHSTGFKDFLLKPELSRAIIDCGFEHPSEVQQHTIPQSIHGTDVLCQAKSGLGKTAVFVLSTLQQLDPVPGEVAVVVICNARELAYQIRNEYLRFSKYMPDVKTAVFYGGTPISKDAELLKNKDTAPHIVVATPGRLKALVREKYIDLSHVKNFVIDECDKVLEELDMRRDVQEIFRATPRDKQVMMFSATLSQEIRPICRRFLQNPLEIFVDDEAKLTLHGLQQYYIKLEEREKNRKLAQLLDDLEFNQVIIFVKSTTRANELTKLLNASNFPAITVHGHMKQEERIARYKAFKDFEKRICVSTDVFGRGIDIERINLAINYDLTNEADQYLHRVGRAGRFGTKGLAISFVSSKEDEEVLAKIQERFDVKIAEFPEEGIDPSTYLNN
In words: EMSA.

For AGCACCGUAAAGC (ssRNA) [13-mer ssRNA], the binding result with Sub2p Y12S and with Sub2p wt was “binds” in each case.

For the origin of these results see PMC3854527.
